Laboratory results taken from paper PMC7447634, “KIN10 promotes stomatal development through stabilization of the [sequence] transcription factor” (Nature Communications, 2020).

Target: T1, maltose-binding protein (MBP)-KIN10 (Arabidopsis thaliana, UniProt Q38997-2 1-512)
T1 construct: KIN10, catalytic alpha subunit of SnRK1, Arabidopsis thaliana; full-length cDNA without stop codon in pMAL2CGW (N-MBP); also called KIN10-MBP; source: bacteria (Escherichia coli), purified (amylose resin); not shown: MBP, N-terminal, kept
T1 sequence (looked up): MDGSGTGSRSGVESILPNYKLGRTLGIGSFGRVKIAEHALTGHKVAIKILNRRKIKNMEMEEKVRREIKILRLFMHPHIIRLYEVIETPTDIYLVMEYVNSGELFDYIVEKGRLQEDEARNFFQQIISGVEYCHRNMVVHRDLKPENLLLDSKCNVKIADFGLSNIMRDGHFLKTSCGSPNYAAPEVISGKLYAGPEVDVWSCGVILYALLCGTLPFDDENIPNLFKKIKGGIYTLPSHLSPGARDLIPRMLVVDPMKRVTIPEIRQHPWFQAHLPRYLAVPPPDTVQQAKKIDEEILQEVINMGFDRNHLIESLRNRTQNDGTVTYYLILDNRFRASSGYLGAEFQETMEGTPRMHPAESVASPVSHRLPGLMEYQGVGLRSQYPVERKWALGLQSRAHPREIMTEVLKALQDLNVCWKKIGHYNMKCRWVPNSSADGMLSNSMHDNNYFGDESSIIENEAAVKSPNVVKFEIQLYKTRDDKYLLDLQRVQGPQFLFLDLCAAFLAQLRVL
Assay: pull-down; 1 µg GST-SPCH bound to glutathione agarose beads incubated with 1 µg MBP or MBP-KIN10; 20 mM Tris-HCl pH 7.5, 100 mM NaCl, 1 mM EDTA, 4 °C, 1 h; washed with 300 mM NaCl, 0.1% Nonidet P-40; blot with anti-MBP
Conditions: both partners purified

binding result: binds
B1: glutathione S-transferase (GST)-SPCH (natural protein, Arabidopsis thaliana, UniProt Q700C7 1-364, looked up)
chain: MQEIIPDFLEECEFVDTSLAGDDLFAILESLEGAGEISPTAASTPKDGTTSSKELVKDQDYENSSPKRKKQRLETRKEEDEEEEDGDGEAEEDNKQDGQQKMSHVTVERNRRKQMNEHLTVLRSLMPCFYVKRGDQASIIGGVVEYISELQQVLQSLEAKKQRKTYAEVLSPRVVPSPRPSPPVLSPRKPPLSPRINHHQIHHHLLLPPISPRTPQPTSPYRAIPPQLPLIPQPPLRSYSSLASCSSLGDPPPYSPASSSSSPSVSSNHESSVINELVANSKSALADVEVKFSGANVLLKTVSHKIPGQVMKIIAALEDLALEILQVNINTVDETMLNSFTIKIGIECQLSAEELAQQIQQTFC
notes: full-length cDNA without stop codon in pDEST15 (N-GST); source: bacteria, purified (glutathione beads); not shown: GST, N-terminal, kept
